Reference: paper PMC10783520, “Mutual promotion of co-condensation of KRAS G-quadruplex and a well-folded protein HMGB1”

Legend:
Conditions in all cases: protein: recombinant; intramolecular parallel G4, K+
[1] = target: T1, HMGB1 A box (termed HMGB1) (UniProt P09429 9-78); assay: fluorescence titration (intrinsic HMGB1 fluorescence, 335 nm); K+; K+-containing buffer; 20 or 200 mM K+ in Fig S9 titrations (10 uM HMGB1); full buffer, pH and temperature of binding assays not in material (phase-separation assays: 10 mM HEPES pH 7.4, 20 mM K+, 10% PEG8K)
T1 sequence: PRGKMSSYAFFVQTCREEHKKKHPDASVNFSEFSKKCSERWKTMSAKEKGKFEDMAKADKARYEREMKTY

[2] = target: T1, HMGB1 A box (termed HMGB1); assay: fluorescence titration; 20 mM K+; K+-containing buffer; 20 or 200 mM K+ in Fig S9 titrations (10 uM HMGB1); full buffer, pH and temperature of binding assays not in material (phase-separation assays: 10 mM HEPES pH 7.4, 20 mM K+, 10% PEG8K)
[3] = target: T1, HMGB1 A box (termed HMGB1); assay: ITC; K+; K+-containing buffer; 20 or 200 mM K+ in Fig S9 titrations (10 uM HMGB1); full buffer, pH and temperature of binding assays not in material (phase-separation assays: 10 mM HEPES pH 7.4, 20 mM K+, 10% PEG8K)
[4] = target: T1, HMGB1 A box (termed HMGB1); assay: fluorescence titration; 200 mM K+; K+-containing buffer; 20 or 200 mM K+ in Fig S9 titrations (10 uM HMGB1); full buffer, pH and temperature of binding assays not in material (phase-separation assays: 10 mM HEPES pH 7.4, 20 mM K+, 10% PEG8K)

AGGGCGGTGTGGGAAGAGGGAA (structured_DNA) [22R (GQKRAS)] showed a Kd [1] of 4.08 µM, a Kd [2] of 3.24 µM and a Kd [3] of 7.04 µM. The Kd [4] was 4.24 µM.
